According to patent US10253109 (BLOODWORKS, dated 2019):
Blank lines part the entries; values can stand above or below the binder they belong to.

How the values were obtained:
[1] = target: T1, human Kell glycoprotein, Kp^a (KEL3) form (human, UniProt P23276 1-732); experiment: flow cytometry, indirect immunofluorescence on RBCs
T1 construct: whole, on cells; also called Kp^a/Kp^a RBCs
T1 sequence (looked up): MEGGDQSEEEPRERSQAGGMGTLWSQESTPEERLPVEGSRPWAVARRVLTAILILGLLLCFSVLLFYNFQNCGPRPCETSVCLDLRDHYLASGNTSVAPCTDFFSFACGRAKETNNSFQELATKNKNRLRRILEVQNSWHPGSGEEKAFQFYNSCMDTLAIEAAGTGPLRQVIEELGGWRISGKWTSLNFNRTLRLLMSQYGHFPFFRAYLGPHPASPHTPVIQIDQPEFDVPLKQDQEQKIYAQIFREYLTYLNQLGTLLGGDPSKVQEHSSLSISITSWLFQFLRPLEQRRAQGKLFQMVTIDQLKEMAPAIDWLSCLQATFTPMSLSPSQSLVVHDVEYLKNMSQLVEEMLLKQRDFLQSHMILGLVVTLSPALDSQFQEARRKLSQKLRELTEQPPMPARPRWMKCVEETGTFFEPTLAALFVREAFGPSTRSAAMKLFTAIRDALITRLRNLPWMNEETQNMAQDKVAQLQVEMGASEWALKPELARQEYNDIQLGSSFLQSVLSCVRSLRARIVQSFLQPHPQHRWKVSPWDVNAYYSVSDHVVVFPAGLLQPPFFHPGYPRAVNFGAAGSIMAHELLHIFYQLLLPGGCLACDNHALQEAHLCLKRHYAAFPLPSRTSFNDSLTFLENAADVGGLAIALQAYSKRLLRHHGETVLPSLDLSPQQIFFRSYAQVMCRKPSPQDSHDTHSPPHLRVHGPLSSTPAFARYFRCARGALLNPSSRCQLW
Method: (§1) The specificities of the antibodies are shown in FIGS. 7A, 7B, 8A, 8B, 9A-9C, and 10A-10I. The specificities of the antibodies were determined to be: PUMA1/2 (KEL1 or K), PUMA 3 (a common Kell epitope, PUMA 4 (KEL4 or Kp^b). Flow cytometry was utilized to test antibody specificity by indirect immunofluorescence, using the monocolonal antibodies as the primary reagent and a goat-anti-mouse antibody (conjugated to allophycocyanin) as a secondary antibody. Different target cells expressing different Kell variants were used to determine specificity. Targets included RBCs that phenotyped as homozygous for the 3 main antithetical antigens in the Kell system, K/K, k/k, Kp^b/Kp^b, Kp^a/Kp^a, Js^b/Js^b, Js^a/Js^a. Differential binding to such tarets tests specificity. In the case of PUMA ½, binding was only observed when K was present but not on k/k RBCs. In the case of PUMA 3, binding was observed on all RBCs regardless of phenotype for K/k, Kp^a/Kp^b, or Js^a/Js^b, thus indicating a common epitope outside these systems. However, PUMA 3 bound to only KELL glycoprotein transgenic murine RBCs and not wild-type murine RBCs; thus, the epitope recognized by PUMA 3 is on the KELL molecule, but not K/k, Kp^a/Kp^b, or Js^a/Js^b. For PUMA 4, binding was only observed when Kp^b was present but not on Kp^a/Kp^a RBCs.

[2] = target: T2, human Kell glycoprotein, k (KEL2) form (human, UniProt P23276 1-732); experiment: as above
T2 construct: also called k form; k/k RBCs
T2 sequence: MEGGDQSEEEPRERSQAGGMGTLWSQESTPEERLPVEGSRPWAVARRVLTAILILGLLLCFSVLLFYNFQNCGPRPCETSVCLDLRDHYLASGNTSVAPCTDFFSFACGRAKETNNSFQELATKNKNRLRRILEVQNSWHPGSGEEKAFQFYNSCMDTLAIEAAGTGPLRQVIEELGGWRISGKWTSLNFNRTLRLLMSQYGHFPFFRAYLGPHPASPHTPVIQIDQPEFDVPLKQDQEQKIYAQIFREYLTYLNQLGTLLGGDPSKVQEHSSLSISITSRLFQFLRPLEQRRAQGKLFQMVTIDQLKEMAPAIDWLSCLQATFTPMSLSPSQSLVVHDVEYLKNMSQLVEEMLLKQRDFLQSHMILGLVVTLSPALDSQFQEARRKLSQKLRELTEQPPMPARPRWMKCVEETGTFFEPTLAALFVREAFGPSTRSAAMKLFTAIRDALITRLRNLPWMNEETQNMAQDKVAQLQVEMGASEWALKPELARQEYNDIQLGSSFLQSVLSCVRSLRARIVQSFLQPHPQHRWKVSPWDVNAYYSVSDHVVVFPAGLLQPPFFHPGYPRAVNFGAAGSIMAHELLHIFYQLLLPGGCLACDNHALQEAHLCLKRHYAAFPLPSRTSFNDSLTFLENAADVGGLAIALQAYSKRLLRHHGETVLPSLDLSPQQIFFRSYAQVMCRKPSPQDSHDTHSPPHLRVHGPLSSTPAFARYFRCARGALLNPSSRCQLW
Method: as §1

[3] = target: T3, human Kell glycoprotein, K (KEL1) form (human, UniProt P23276 1-732); experiment: flow cytometry on RBCs (FIGS. 7A, 7B)
T3 construct: whole, on cells; also called K form of the Kell glycoprotein; K/K RBCs
T3 sequence (looked up): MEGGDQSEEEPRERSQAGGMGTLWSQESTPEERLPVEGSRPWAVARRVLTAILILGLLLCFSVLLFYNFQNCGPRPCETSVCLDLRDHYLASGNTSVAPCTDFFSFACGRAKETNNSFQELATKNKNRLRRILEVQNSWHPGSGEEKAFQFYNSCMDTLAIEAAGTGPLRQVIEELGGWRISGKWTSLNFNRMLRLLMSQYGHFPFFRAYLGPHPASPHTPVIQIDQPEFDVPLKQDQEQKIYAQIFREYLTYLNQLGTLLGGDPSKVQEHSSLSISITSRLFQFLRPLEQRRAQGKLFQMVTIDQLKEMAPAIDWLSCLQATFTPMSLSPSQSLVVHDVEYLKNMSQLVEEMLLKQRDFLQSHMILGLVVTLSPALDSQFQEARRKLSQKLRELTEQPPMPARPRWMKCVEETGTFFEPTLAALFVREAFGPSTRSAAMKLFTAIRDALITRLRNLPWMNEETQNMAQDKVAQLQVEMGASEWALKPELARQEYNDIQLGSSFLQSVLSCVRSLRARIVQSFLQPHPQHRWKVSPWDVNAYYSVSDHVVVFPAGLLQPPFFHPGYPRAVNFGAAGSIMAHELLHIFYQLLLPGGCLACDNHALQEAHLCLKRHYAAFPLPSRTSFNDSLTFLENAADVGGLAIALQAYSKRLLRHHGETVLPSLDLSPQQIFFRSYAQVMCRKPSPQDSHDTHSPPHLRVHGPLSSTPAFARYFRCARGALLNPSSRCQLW
Method: as §1

[4] = target: T4, human Kell glycoprotein transgene (KEL1, Kp^b, Js^b variants) on murine RBCs (human, UniProt P23276 1-732); experiment: in vivo, passive immunization of mice and transfusion of KEL1+ RBCs
T4 construct: whole, on cells; also called KELL glycoprotein transgenic murine RBCs; KEL1+RBCs
T4 sequence (looked up): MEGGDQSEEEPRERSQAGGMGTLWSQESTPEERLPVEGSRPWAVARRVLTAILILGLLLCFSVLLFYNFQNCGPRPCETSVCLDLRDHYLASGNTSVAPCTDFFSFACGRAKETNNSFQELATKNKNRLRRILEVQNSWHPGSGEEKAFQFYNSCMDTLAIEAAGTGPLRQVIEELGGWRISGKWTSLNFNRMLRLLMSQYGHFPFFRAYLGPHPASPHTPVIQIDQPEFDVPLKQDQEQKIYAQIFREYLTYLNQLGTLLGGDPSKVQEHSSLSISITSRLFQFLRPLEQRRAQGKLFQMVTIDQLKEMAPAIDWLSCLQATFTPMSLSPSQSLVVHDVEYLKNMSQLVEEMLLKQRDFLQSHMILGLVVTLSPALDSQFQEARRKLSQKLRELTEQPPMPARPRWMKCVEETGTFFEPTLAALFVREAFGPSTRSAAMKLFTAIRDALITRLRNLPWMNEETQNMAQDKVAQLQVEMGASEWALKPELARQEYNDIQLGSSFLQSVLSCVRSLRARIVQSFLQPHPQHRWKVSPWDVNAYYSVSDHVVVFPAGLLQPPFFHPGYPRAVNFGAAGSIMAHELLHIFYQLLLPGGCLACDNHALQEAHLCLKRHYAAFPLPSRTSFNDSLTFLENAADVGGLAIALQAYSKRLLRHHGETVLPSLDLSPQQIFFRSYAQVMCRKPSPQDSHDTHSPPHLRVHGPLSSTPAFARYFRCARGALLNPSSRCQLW
Method: The ability of PUMA1 to induce a HTR was tested by passive immunization of wild-type mice with PUMA1 (by intravenous tail-vein injection), followed by transfusion with murine KEL1+RBCs from KEL1 transgeneic mouse donors. Compared to a control group that got only PBS, PUMA1 caused a brisk clearance of KEL1+RBCs, after which, the surviving RBCs continued to circulate, as is typical of HTRs in both mice and also in humans (FIG. 13). Thus, PUMA1 specifically binds to KEL1 RBCs, in vivo, with sufficient activity to induce an HTR.

[5] = target: T2, human Kell glycoprotein, k (KEL2) form; experiment: flow cytometry, indirect immunofluorescence on k/k RBCs
Method: as §1

[6] = target: T3, human Kell glycoprotein, K (KEL1) form; experiment: flow cytometry, indirect immunofluorescence on K/K RBCs
Method: as §1

[7] = target: T4, human Kell glycoprotein transgene …; experiment: flow cytometry, indirect immunofluorescence on transgenic murine RBCs
Method: as §1

binding result [1]: no binding
B1: monoclonal antibody PUMA 4 (antibody, V domains shown)
VH: EVKLEESGGGLVQPGGSMKLSCVASGFTFSNYWMNWVRQPPEKGLEWVAEIRLNSNNYATHYAESVKGKFTISRDDSKSSVYLQMNDLRAEDTGIYYCTRNWDFAWFDSWGQGTLVTVSA
VL: DIVMTQSHKFMSTSVGDRVSITCKASQDVSTVVAWYQQKPGQSPKLLIYWASTRHTGVPDRFTGSGSGTDYTLTISSVQAEDLALYYCQQHYTTPFTFGSGTKLEIK
notes: Mouse monoclonal antibody from hybridoma

binding result [2]: no binding
binding result [3]: binds
binding result [4]: binds
B2: monoclonal antibody PUMA 1 (antibody, V domains shown)
VH: EVQLQQSGPELVKPGASVKMSCKASGYTFTDYYMKWVKQSHGKSLEWIGDLNPNNGDTFYNQKFKGKATLTVDKSSSTAYIQLNSLTSEDSAVYYCAREAGSSFGSSCNYWGQGTTLTVS
VL: SVVMTQTPKFLLVSAGDRVTITCKASQTVSKDVAWYQQQPGQSPKLLIYYASNRYTGVPDRFTGSGYGTDFTFTISTVQAEDLAVYFCQQDYSSPYTFGGGTKLEIK
notes: also called PUMA 2; Puma 2

binding result [5]: binds
binding result [6]: binds
binding result [7]: binds
B3: monoclonal antibody PUMA 3 (antibody, V domains shown)
VH: QVQLKESGPGLLAPSQSLSITCTVSGFSLTSYGVYWVRQPPGKGLEWLGIIWGDGSTNYQSVLRSRLSITKDDSKSQVFLKLNSLQTDDTATYYCAKRGDYDVAYWGQGTLVTVSA
VL: DIVLTQSPASLAVSLGQRAIISCKASQTVSEVGTSLMHWYQQRPGQQPKLLIYRTSNLEAGVPTRFSGSGSRTDFTLNIHPVEEDDAATYYCQQSREFPWTFGGGTRLEIK
notes: as for B1
